Data: the DeepSol protein solubility set

Assay: soluble on expression in E. coli; label from the status in PepcDB or PDB records

| Sequence | soluble on expression in E. coli |
| --- | --- |
| MKTNKKDEETGGNVYAHLDKTSVLQEARAFNETPINARKCCFILSKLIYIIQQGESIGRTEATEAFFGVTKLWQSKDVSLRRMVYLAVKELAEVSDDVIIVTSSLTKDMTGREDLYRAAAIRALCKITDTGMLQTIERYMKQAIVDRNSAISSSAIVSSIHLMRKSSEVVRRWANEVQEAVSSDNHMVQYHALALLYQIRANDRLAVNKLVQKFSKNALRSPYAVCYLIRIATRCLVDDDQPDSSVFTFIESCLRHKSEMVVYEAARAIVSLPQTTPSEIQPAITALQMCCTSPKAAVRFAAVRTLNKVAMAHPNAVMSCNVDLEKFITDPNRSIATLAITTLLKTGAESSVERLMQQIAGFVNEISDEFKIVVVDAIRSLCSRYPRKHTVMMPFLAKMLRSDGSYDYKKAIVETIIAIIEENPDAKVAGLAHLCEFIEDCEHDNLSTRVLHLLGREAPKTPNPSSYIRFIYNRVILESTKVRAAAVTALAKFGAQCVDLRPSIQVLLKRCLLDSDDEVRDRATFYLKMLTEAAEGLIHNFILDGLQVSPSGLERSILDYLRSGSYSSPFDLRVVPVTQQALSQPEKRVPQLVEEEEKPKAPKVEPYAAQLAAIPQFAALGPVFKSSTRIALTESIAEYTVHMIKHTFANAMVLQFECKNTMNDQLLLDVSVELEDPDGEWETGNTVQIDKLPYGEVHSAFSLLEFPDSGAISGSLGAILKFKVMDVDPTSGEPDSDDTYEQTYVLEEVDVNVSDSVQGVAKSSFGSAWEALGDDATREETFQLSTVENIPDAVKKISEILGLVPCERSDRVPEGKTQHTVFLSGVFRGGYDVLSKATVAVDPNDNSIAMNIIIKSNEPLVADLVISAVV | not soluble |
| MKTPARRSKRVNQEESETNVTTRVVLRTRKTNCSKTRAARVRPDYPLTRTTSESEMKLMPPEFFQIDALDLAPRLLGKFMRRDNVVLRITEVEAYRPNDSACHGRFGVTPRTAPVFGPGGHAYVYLCYGLHMMLNIVADKEGVGAAVLIRSCSPVSGMETIQERRGLKTDKPVLLNGPGKVGQALGLSTEWSHHPLYSPGGLELLDGGEDVEKVMVGPRVGIDYALPEHVNALWRFAVADTPWISAPKNTLKPL | soluble |
| MKTQIIGVLGLGIFGQTLATELSSFGQDVIALDNNSTTIDFLADQVTKAAVGDITDIDFLRSAGIDTCDTVIIATGEHLESSALALLHCKKLGITNIIAKATNNNYEEVLYGMGANLVITPERSTAKDLASNILRCNISRIFHLEDDVALIELKIPNEWAGKSLHTLNLRQTYNVNVIGFRNEENGKLNTHFDPMNRLPNEGTILVVSDNRTLEKFDYLGYLKLEHHHHHH | soluble |
| MKTRLNKTSLNQALLPTSTAGSLPKPLWLAEPETLWSPWKLQGEELITGKHDALRLSLQDQQLAGIDIVSDGEQTRQHFVTTFIEHLNGVDFSKRKIVKIRDRYDASVPTVVGPVSRQKSVFVEDAKFLRKQTTQPIKWALPGPMTMIDTLYDDHYKSREKLAWEFAKILNEEAKELEAAGVDIIQFDEPAFNVFFDEVNDWGIACLERAIEGLKCETAVHICYGYGIKANTDWKKTLGSEWRQYEEVFPKLQKSNIDIISLECHNSHVPMELLELIRGKKVMVGAIDVATDTIETAEEVADTLRKALKFVDADKLYPCTNCGMTPLSHQVTRGKLNALSAGAEIVRKELLALR | soluble |
| MKTTKFNIENLDLFYGENQALKSINLPIPTRQVTALIGPSGCGKSTLLRCLNRMNDLIEGVTITGKLTMDGQDVYGNIDVSDLRIRVGMVFQKPNPFPMSIYENVAYGLRAQGIKDKKHLDEVVERSLRGAALWDEVKDRLKSHAFGLSGGQQQRLCIARTIAMEPDVILMDEPTSALDPIATHKIEELMEDLKKNYTIVIVTHSMQQARRISDRTAFFLMGELVEHDDTQVIFSNPRDDRTRGYVNGDFG | not soluble |
| MKTTLFYIMFAYALSTAFPSMMLAQASSIAEVNQGQASKMVIDSSARVLSTLEQQRAQFRQDPKALRQFMETEFTTIFDRDYAARLVLGKYARNASDTDVKLFADAITENLMQRYGNALLTFEGKPNFRAKSESRLPGNRNVRVSTELIRSGADPVAVDYLLRNVNGQWKIFDVMIEGISYVQTFRNQFDAPLRQKGIAQVAAELRSGNLQVGKSNGKAAALEHHHHHH | soluble |
| MKTVRESTTLYNFLGSHNPYWRLTESSDVLRFSTTETTEPDRTLQLSAEQAARIREMTVITSSLMMSLTVDESDLSVHLVGRKINKREWAGNASAWHDTPAVARDLSHGLSFAEQVVSEAHSAIVILDSRGNIQRFNRLCEDYTGLKEHDVIGQSVFKLFMSRREAAASRRNNRVFFRSGNAYEVELWIPTCKGQRLFLFRNKFVHSGSGKNEIFLICSGTDITEERRAQERLRILANTDSITGLPNRNAMQDLIDHAINHADNNKVGVVYLDLDNFKKVNDAYGHLFGDQLLRDVSLAILSCLEHDQVLARPGGDEFLVLASNTSQSALEAMASRILTRLRLPFRIGLIEVYTSCSVGIALSPEHGSDSTAIIRHADTAMYTAKEGGRGQFCVFTPEMNQRVFEYLWLDTNLRKALENDQLVIHYQPKITWRGEVRSLEALVRWQSPERGLIPPLDFISYAEESGLIVPLGRWVILDVVRQVAKWRDKGINLRVAVNISARQLADQTIFTALKQVLQELNFEYCPIDVELTESCLIENDELALSVIQQFSQLGAQVHLDDFGTGYSSLSQLARFPIDAIKLDQVFVRDIHKQPVSQSLVRAIVAVAQALNLQVIAEGVESAKEDAFLTKNGINERQGFLFAKPMPAVAFERWYKRYLKRA | not soluble |
| MKTVTARPLTAEAFAPYGSVADISELENLVSLADAYEGTGEAKTPVLQLVQAKAMSGSPVISQMEIHPFSSQTFLPLDQSSSLIVVCEAGEDGMPDESTIKAFLASPSQIVTYRHGVMHHRLTPLAPSGRFAMTMWQTGRGGDTVLYPLHTPVSVDISDITP | not soluble |
| MKTYHLNNDIIVTQEQLDHWNEQLIKLETPQEIIAWSIVTFPHLFQTTAFGLTGLVTIDMLSKLSEKYYMPELLFIDTLHHFPQTLTLKNEIEKKYYQPKNQTIHVYKPDGCESEADFASKYGDFLWEKDDDKYDYLAKVEPAHRAYKELHISAVFTGRRKSQGSARSQLSIIEIDELNGILKINPLINWTFEQVKQYIDANNVPYNELLDLGYRSIGDYHSTQPVKEGEDERAGRWKGKAKTECGIHEASRFAQFLKQDA | soluble |
| MKVGVIGASEMAGSAIYKLAKQNLEIDVTGIVRHESKAKKVLGDDAKLIVGDIFALSDNILDKFDVIIDAFGTDPKNAEEHVILAKKLINLVRKNKIRVIFILGAGSLHTGDDEHLVVDDIAQMDNADTWINTPRQQLKELEYLNSIDDVDWLGISPALQFEAGPATEYIEGTDELLYNKDGDSKLTSGTMATVVIKETVDSVHHQERITIANALEHHHHHH | soluble |
| MKVKIAFTTTDRIHVNAHFGWAREIDIYEISDHGYEFLETLKFEGDLKEDGSEDKITPKLEALNGCTIVYVVAIGGSAAARLIKGGVTPVKAKSEEEKIEEVLTKLVKTLKGNPPPWLRKALQPKTLNFADEVENEATV | not soluble |
| MKVLLANPRGFCAGVDRAIEIVKRTIDMLGTPIYVRHEVVHNRFVVDDLKQRGAIFVEELHQVPDGATVIFSAHGVSQAVRRQAAQRGLKVFDATCPLVTKVHLDVARHCRTGRDMILIGHAGHPEVEGTMGQWDQERGTGRIYLVENIDDVATLHVAQPHHLAYTTQTTLSVDDTRNIIDALRQRFPTIQGPKNNDICYATQNRQDAVRELARECDLVLVVGSPNSSNSNRLSELAQREGVASYLIDSAAEIDPAWVIDKHHIGVTAGASAPQVLVDGVLARLYELGAT | not soluble |
| MKVMNIIHDSVVDGEGLRTVVFFAGCPHRCVGCHNPKSWNICNGTEMTVEEIVKEIASNPLTDVTFSSGDPFFQAAEVKKVAKIGKDLKKNLWMYTGYTLEEIQSSQNNDMIELLHYGDVLVDGRFEIEEKDLTLPFRGSSNQRIIRLKELEHHHHHH | not soluble |
| MKVVAFNGSPRRDGNTSILIDKVLNELKKEGITTEHIHIAGGKLRGCTACYKCFETLNNKCIIECDIINNCIEKMIEADGIILGSPTYFTDVTAEMKALIDRAGFVAKANDDILKRKVGAAVVSVRRAGGVHVFDTLNHFFSINQMISVGSDYWNLGMGLDIGDVQKDAEGLHTMELLGQNMAWILKKINELEHHHHHH | not soluble |
| MKWRYGAAAGVESRGPHIRVQTVASQVPRGVCWMARVAVVVKVYPDDVSIDPKTLAERIKSKLPSGYEVLAEGEEPIAFGLKALKLVIAMNEDTEGGTEEVEQLLKNIEGVQEVEVENVSRMQ | soluble |
